Source: patent publication US20190016810A1, “METHODS FOR TREATING OR PREVENTING GRAFT-VERSUS-HOST DISEASE INVOLVING THE ADMINISTRATION OF ANTI-CCR5 RECEPTOR AGENTS” (CytoDyn Inc., priority 2017, published 2019)
Entries after “also recorded” stand apart in the source; their conditions may differ.

Tests used:
CCR5 [1] = target: T1, CCR5 (Homo sapiens, UniProt P51681); settings: activated human T cells, cited from earlier work
[2] = in vivo; cited from earlier work
[3] = system: engrafted human cells (CD45+, CD3+); experiment: Flow cytometry analysis of engrafted human cells in peripheral blood, spleen and bone marrow of NSG mice; format: in vivo; settings: for CD45+ cells in peripheral blood at the time of euthanasia: control 64%
Procedure: Peripheral blood (PB), bone marrow (BM), and spleen (SPL) samples were analyzed by flow cytometry. Splenocytes were passed through a […] strainer. Erythrocytes were lysed with ammonium chloride. Cells were washed twice with PBS and stained for 15 min at 4 deg C. in PBS/0.5 mM EDTA/0.5% BSA with the following antibodies: anti-human-CD3-FITC (clone UCHT1, IM1281U), anti-human-CD45-PC7 (clone J.33, 1M3548U), Beckman/Coulter. Samples were analyzed on a Cytomics FC500 Flow Analyzer (Beckman/Coulter).

CCR5 [4] = target: T1, CCR5; settings: CD4+ T cells, cited from earlier work
HIV-1 = settings: at concentrations that do not affect CCR5 chemokine receptor activity; in vitro and hu-PBL-SCID mouse model; cited from earlier work
CCR5 [5] = target: T1, CCR5; design: host or cells: CHO-K1; settings: CHO-K1 cells, cited from earlier work
xeno-GVHD in NSG mice = xeno-GVHD in NSG mice engrafted with human bone marrow cells: physical signs, weight, survival
Procedure: Animal experiments were conducted in accordance with the ethical standards and according to national and international guidelines and were approved by the Cleveland Clinic Institutional Animal Care and Use Committee. Male NSG mice, NOD.Cg-Prkdc^scidIl2ry^tm1wjl/SzJ (NOD-scid IL2ry^null, NSG) mice were obtained from the Jackson Laboratory (Bar Harbor, Me., USA), and athymic nude (nu/nu) (Taconic, Hudson, N.Y.) 6-8 wk old were used. Mice were housed in a barrier facility in cages with microisolator lids, autoclaved bedding, and HEPA-filtered air, and maintained under 12:12 light/dark cycles, controlled temperature and humidity. […] Conditioning regimen: Mice received 2.25 Gy total body irradiation via a 137Cs source (Shepherd, Los Angeles Calif.).
Following gamma irradiation (24 h later) mice were engrafted with human BM cells. De-identified human donor cells were obtained by back-flushing filter packs utilized by the Cleveland Clinic BMT program. Fresh (non-frozen) leukocytes were purified by Ficoll-Hypaque gradient centrifugation, washed in phosphate buffered saline (PBS), assessed for viability (ViCell, Beckman Coulter, Brea, Calif.). Human BM leukocytes were injected into the lateral tail vein (10^7 cells/mouse). Mice were monitored for clinical symptoms of GVHD (body posture, activity, fur and skin condition, weight loss) two times/wk. Peripheral blood was monitored weekly for engraftment utilizing saphenous vein venipuncture (50 mL) collected in K-EDTA tubes.
Mice were randomized into control and treatment groups by body weight. PRO 140 was administered on different doses (0.2-2.0 mg/kg) and schedules. The route was always intraperitoneal (i.p.). Control mice received normal human IgG (Sigma Aldrich, St. Louis, Mo.).
Starting with the human dose of PRO 140=5.8 mg/kg×12 (man-to-mouse conversion factor)=69.6 mg/kg mouse dose; average mouse=0.025 kg, therefore dose is 69.6 mg/kg×0.025 kg=1.74 mg (mouse single dose). This was rounded up to 2.0 mg and designated as the “high dose”. A “low dose” (0.2 mg) was also tested. IgG derived from human serum (>95% SDS-PAGE, Sigma, I4506) was used as a non-specific control antibody.
Statistical analysis was performed using GraphPad Prism (GraphPad Software, La Jolla, Calif.). All measures of variance were depicted as standard error of the mean (SEM). Survival was analyzed by the Kaplan-Meier method and Mantel-Cox log-rank test. For other data, two-sided unpaired Students t-test was used.

CCR5 [6] = target: T1, CCR5; experiment: Tyrosine kinase phosphorylation downstream of CCR5 receptor signaling in T cells in vitro; format: cell-based; design: tyrosine kinase phosphorylation downstream of CCR5 receptor signaling in T cells in vitro; endogenous in cells; host or cells: T cells
Excerpt: Thus, it is shown that PRO 140's activity as a CCL5 competitive binding inhibitor has a mixed impact on CCL5's ability to participate in downstream activity conventionally associated with the CCR5/CCL5 axis. Further elucidation of the role of PRO 140 and its immunomodulatory effects is the subject of continued investigation.

T1 sequence (P51681 whole entry): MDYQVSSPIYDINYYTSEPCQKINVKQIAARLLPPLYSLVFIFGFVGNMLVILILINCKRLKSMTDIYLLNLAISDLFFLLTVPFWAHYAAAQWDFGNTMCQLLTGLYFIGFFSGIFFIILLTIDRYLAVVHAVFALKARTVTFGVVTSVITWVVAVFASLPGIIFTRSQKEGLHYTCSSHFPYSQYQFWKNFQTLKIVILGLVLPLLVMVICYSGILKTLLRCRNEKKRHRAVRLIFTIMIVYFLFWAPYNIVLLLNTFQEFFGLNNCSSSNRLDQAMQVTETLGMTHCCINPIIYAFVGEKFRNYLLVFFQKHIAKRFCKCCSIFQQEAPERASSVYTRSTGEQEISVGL

Cc1nnc(C(C)C)n1C1C[C@H]2CC[C@@H](C1)N2CC[C@H](NC(=O)C1CCC(F)(F)CC1)c1ccccc1 (stereo in doubt) [maraviroc]
production of TNF-α and IFN-γ (CCR5 [1]; high doses): tends to decrease production of TNF-α and IFN-γ | CCR5 and CCR2 internalization induced by CCL5 and CCL2 (CCR5 [1]): can block CCR5 and CCR2 internalization processes | T cell chemotactic activities toward cognate ligands (CCR5 [1]): inhibit T cell chemotactic activities | incidence of gastrointestinal and liver GVHD [2]: dramatically decreases the incidence of gastrointestinal and liver GVHD

B1: PRO 140: humanized monoclonal antibody to CCR5, humanized version of the murine mAb PA14; competitive inhibitor of CCL5 binding to CCR5 receptor (antibody, chains of the INN, looked up, V domains shown)
VH: EVQLVESGGGLVKPGGSLRLSCAASGYTFSNYWIGWVRQAPGKGLEWIGDIYPGGNYIRNNEKFKDKTTLSADTSKNTAYLQMNSLKTEDTAVYYCGSSFGSNYVFAWFTYWGQGTLVTVSS
VL: DIVMTQSPLSLPVTPGEPASISCRSSQRLLSSYGHTYLHWYLQKPGQSPQLLIYEVSNRFSGVPDRFSGSGSGTDFTLKISRVEAEDVGVYYCSQSTHVPLTFGQGTKVEIK
effect on engraftment ([3]; bone marrow at the time of euthanasia): did not inhibit engraftment; also recorded: did not negatively affect engraftment | CD45+ cells in bone marrow versus control at the time of euthanasia ([3]; compared with control IgG mice): no differences | CD45+ cells in spleen at the time of euthanasia ([3]; control 58-59%, p<0.05): 41% | CD45+ cells in peripheral blood at the time of euthanasia ([3]; p<0.05): 46% | CD45+ cells in peripheral blood at the time of euthanasia ([3]; p<0.05, listed as Pro 140): 45% | mouse hematopoietic cells (mouse CD45) in bone marrow ([3]; high dose cohort, Day 75): 28% | mouse hematopoietic cells (mouse CD45) in peripheral blood ([3]; high dose cohort, Day 75): 14.9% | mature T-cells (CD45/CD3) in bone marrow at 54 days ([3]; high dose cohort, FIG. 6 BM panel E2 quadrant, control 40.2%): 26.4% | mature T-cells (CD45/CD3) in peripheral blood at 54 days ([3]; high dose cohort, FIG. 6 PB panel E2 quadrant, control 63.2%): 49.8% | human CD45+ cells in peripheral blood versus control at day 50 ([3]; high dose, compared with control IgG mice): significantly lower | human CD45+ cells in peripheral circulation at 50 days ([3]; high dose, control 62%, p=0.034): 43% | delay until the same percentage of CD45+ engraftment as control ([3]; low dose (0.2 mg), peripheral blood, P<0.01): approximately 20 days | divergence in engraftment from control, start ([3]; low dose cohort (0.2 mg)): 15 days | effect on cAMP levels, added alone (CCR5 [4]; PRO 140 alone): does not affect cAMP levels | effect on cAMP levels, administered with CCL5 (CCR5 [4]; with CCL5): does diminish the effect of CCL5 on cAMP levels | HIV-1 entry and replication (HIV-1): potently inhibits HIV-1 entry and replication | effect on chemotaxis, alone (CCR5 [5]; PRO 140 alone): does not affect chemotaxis | effect on CCL5-induced chemotaxis (CCR5 [5]; with CCL5): does reduce CCL5-induced chemotaxis | survival (Kaplan-Meier), low dose (xeno-GVHD in NSG mice; PRO 140 0.2 mg i.p., BM from donor, control animals all dead by 31 days): ≤ 54 days | start of physical signs of GvHD and weight loss, low dose (xeno-GVHD in NSG mice; PRO 140 0.2 mg i.p., control mice starting at day 20): 25 to 28 days | mean weight at about 20 days (xeno-GVHD in NSG mice; PRO 140 2.0 mg i.p. twice/wk started day 1, about 20 days after engraftment): about 23.0 gm | mean weight at about 52 days (xeno-GVHD in NSG mice; PRO 140 2.0 mg i.p. twice/wk started day 1, about 52 days after engraftment): about 23.6 gm | survival (Kaplan-Meier), high dose (xeno-GVHD in NSG mice; PRO 140 2.0 mg i.p. twice/wk started day 1, sacrificed at 70 days, control IgG animals all dead by 56 days): ≥ 70 days | physical signs / symptoms of GVHD (xeno-GVHD in NSG mice; high dose (2.0 mg i.p. twice/wk), 70-day study period): did not exhibit any symptoms associated with GVHD; also recorded: no physical signs of GVHD | weight course (xeno-GVHD in NSG mice; high dose (2.0 mg i.p. twice/wk), control mice lost weight): gained weight; also recorded: continued to gain weight | survival (xeno-GVHD in NSG mice; past 70 days, xeno-transplant animal model, NSG mice upon HSC engraftment): 100% | effect on tyrosine kinase phosphorylation, alone (CCR5 [6]; PRO 140 alone): does not affect tyrosine kinase phosphorylation | effect on phosphorylation of tyrosine kinases by CCL5 (CCR5 [6]; with CCL5): does not inhibit phosphorylation of such kinases by CCL5
